Measurements reported in a protein production outcome set (Wang et al. 2014).

Assay: label from the status in PepcDB records

Sequence	protein production
MDAKARNCLLQHREALEKDIKTSYIMDHMISDGFLTISEEEKVRNEPTQQQRAAMLIKMILKKDNDSYVSFYNALLHEGYKDLAALLHDGIPVVSSSSGKDSVSGITSYVRTVLCEGGVPQRPVVFVTRKKLVNAIQQKLSKLKGEPGWVTIHGMAGCGKSVLAAEAVRDHSLLEGCFPGGVHWVSVGKQDKSGLLMKLQNLCTRLDQDESFSQRLPLNIEEAKDRLRILMLRKHPRSLLILDDVWDSWVLKAFDSQCQILLTTRDKSVTDSVMGPKYVVPVESSLGKEKGLEILSLFVNMKKADLPEQAHSIIKECKGSPLVVSLIGALLRDFPNRWEYYLKQLQNKQFKRIRKSSSYDYEALDEAMSISVEMLREDIKDYYTDLSILQKDVKVPTKVLCILWDMETEEVEDILQEFVNKSLLFCDRNGKSFRYYLHDLQVDFLTEKNCSQLQDLHKKIITQFQRYHQPHTLSPDQEDCMYWYNFLAYHMASAKMHKELCALMFSLDWIKAKTELVGPAHLIHEFVEYRHILDEKDCAVSENFQEFLSLNGHLLGRQPFPNIVQLGLCEPETSEVYQQAKLQAKQEVDNGMLYLEWINKKNITNLSRLVVRPHTDAVYHACFSEDGQRIASCGADKTLQVFKAETGEKLLEIKAHEDEVLCCAFSTDDRFIATCSVDKKVKIWNSMTGELVHTYDEHSEQVNCCHFTNSSHHLLLATGSSDCFLKLWDLNQKECRNTMFGHTNSVNHCRFSPDDKLLASCSADGTLKLWDATSANERKSINVKQFFLNLEDPQEDMEVIVKCCSWSADGARIMVAAKNKIFLFDIHTSGLLGEIHTGHHSTIQYCDFSPQNHLAVVALSQYCVELWNTDSRSKVADCRGHLSWVHGVMFSPDGSSFLTSSDDQTIRLWETKKVCKNSAVMLKQEVDVVFQENEVMVLAVDHIRRLQLINGRTGQIDYLTEAQVSCCCLSPHLQYIAFGDENGAIEILELVNNRIFQSRFQHKKTVWHIQFTADEKTLISSSDDAEIQVWNWQLDKCIFLRGHQETVKDFRLLKNSRLLSWSFDGTVKVWNIITGNKEKDFVCHQGTVLSCDISHDATKFSSTSADKTAKIWSFDLLLPLHELRGHNGCVRCSAFSVDSTLLATGDDNGEIRIWNVSNGELLHLCAPLSEEGAATHGGWVTDLCFSPDGKMLISAGGYIKWWNVVTGESSQTFYTNGTNLKKIHVSPDFKTYVTVDNLGILYILQTLE	failed
MDAKETSATDLKRPREEDDNGGAATMETENGDQKKEPACFSTVIPGWFSEMSPMWPGEAHSLKVEKVLFQGKSDYQDVIVFQSATYGKVLVLDGVIQLTERDECAYQEMITHLPLCSIPNPKKVLVIGGGDGGVLREVARHASIEQIDMCEIDKMVVDVSKQFFPDVAIGYEDPRVNLVIGDGVAFLKNAAEGSYDAVIVDSSDPIGPAKELFEKPFFQSVARALRPGGVVCTQAESLWLHMDIIEDIVSNCREIFKGSVNYAWTSVPTYPSGVIGFMLCSTEGPDVDFKHPLNPIDESSSKSNGPLKFYNAEIHSAAFCLPSFAKKVIESKAN	failed
MDALIMAGGKGTRMGGVEKPLIKLCGRCLIDYVVSPLLKSKVNNIFIATSPNTPKTKEYINSAYKDYKNIVVIDTSGKGYIEDLNECIGYFSEPFLVVSSDLINLKSKIINSIVDYFYCIKAKTPDVEALAVMIPKEKYPNPSIDFNGLVPAGINVVSPKHGYQKEEIMVIDELIFNINTKDDLKLAEMLLKKDGL	failed
MDANEKKEVIKKRFQEIAMSGGTCCSGGGCCGDSSSSDISRAIGYSEADIEAVPDANMGLGCGNPASIAELKPGDIVLDLGSGAGFDCFLAAQKVGNSGKVIGVDMTPEMVEKVQANARKYGYSNVEFRQGDIEALPVEDSSVDVIISNCVINLAPDKEKVFREAFRVLKLGGRLYISDLVLLDELPEDLKNDRDLLAGCVAGAVLKEEYLKLLKRAGFSVEILAEDPDISKSQYKGLPVESLKLKAWVLEHHHHHH	not failed
MDAVVVLCYLLLALPTIIPSVVDGKWLVVAILLLIAIALFFRRPFPLQVVLAVSLLEIAATILNPWGSNVSAGLWFALYAVASLRKRALALVVFAVASLPLSLLYLFMWTSPSEMDNLQDVPENFHLINNIATAVTIMLSNLLATGIGISVRQRREHEAEIAAWAARTTQLGKVTERNRIAREMHDVVAHSLTVMISLSDGAAVVVKKDPERAGDVLGELSRTGRAALADMRRVLGVLRDDSGRPAPLTPLESGQNLAKLLDGFRTAGLPLHYAHTGPGLPADPAFELTVYRIVQESLTNVLRYGRSLSRVDVQVARDGDLVTIDVLDDGRGTREGGSESVGSLGTGQGIAGMNERAGIYAGIVTAGPGKRGGWAVHAELRWNGEKGES	failed
MDCYLNAANSFARILDEYQTYNSLVVAFDFDDTVYDFHKKGRLYADVVTLLRDLKKINCHLICWTGQEDLTFVKNYLMENNIPFDDINENPPFHVSSSKKVYANVYLDDRAGLKQVFGELTQLLQHESIRIKSV	failed
MDDDMDIQQSYPFTVEVMPVPNKVVKGQTVEIRCELKKEGDFSGTLYTIRYFQFEGEGSLKMDNGITFLPNDRYLLENEKFRLYYTAAGDEAHNFIVVVEDNFSNSYELEFDFNNRNVKDDDLTIVPIGNFSPLLKLEHHHHHH	failed
MDDGTGAKRTKATVLQRVSSVLNADAHDATALDGGEVGSVYRVSFHDRPDVAVKVDDSPLGIEAAMLQSLDRDTPLPVPEVLHVEPELLVLSFIRGDGRFDERAERDLARHVAALHDTSADVFGFPFDTLSGPFSQSNPWTDSWIDFFRAQRLLPFATAARNEGALPAGEFDRVQRLAETLDARLVEPATPSLLHGDIHPGNAVVADGTVRAVLDPAIYFGHAEVDLAYVDRLDSIGAAFYDEYRQHRDISAGYFEERRDVYVAFHALENVRFFGEDELPRLERALDRLGM	failed
MDDIDSLILIGVLIALTAFFVASEFAIVRVRRSRIDQLITEGNKRAILARRVITDLDEYLSASQLGITLTSIGLGVLGEPAFERLLHPLFEPLGLPDSVSHAVSFAVAYGLITFLHVVVGELAPKTVAIQKAEQLTLLIAGPLRLFYLLLFPFIWILNGSARLLCGMFGLKPASEHDGSHSEEELRMLLSESLKNGEINPSEYKYVNKIFEFDNRIAKEIMIPRKEMAAVSTEMTMAEMLEVMLKEKYTRWPVTDGDKDSVLGLVNTKHLFSDLLFMTEEERMKMTIHPYVRPVIEVIETIPVHDLLIKMQRERIHMAILSDEYGGTSGLVTTEDILEEIVGEIRDEFDEDEQPLIQKLGDGHYVMDGKVRIDQVNSLLGASIQEDVDTIGGLILKENIDIEAGESIRIGSYTIKVLKMDGRLIKQIDIKEEAGNTTGITAHHKLPLPEPVMLNSATLSEK	failed
MDDLTNLAARLRLLEDREEIRELIARYGPLADSGDAEALSELWVEDGEYAVVGFATAKGRAAIAALIDGQTHRALMADGCAHFLGPATVTVEGDTATARCHSVVFRCVSGTFGSHRVSANRWTFRRTPAGWRAVRRENALLDGSAAARALLQFR	not failed
MDDQSGDQMRPELTMPPAEAEALRMAYEEAEVILEYGSGGSTVVAAELPGKHVTSVESDRAWARMMKAWLAANPPAEGTEVNIVWTDIGPTGDWGHPVSDAKWRSYPDYPLAVWRTEGFRHPDVVLVDGRFRVGCALATAFSITRPVTLLFDDYSQRRWQHQVEEFLGAPLMIGRLAAFQVEPQPIPPGSLMQLIRTMTSP	not failed
MDDVKDKLKGFMKKVNLSSSSGKFKGQGRVLGSSSSSSAPPVNPIQNRFNSSQAPNPTPRPKPNPNPLPEKPLSSSDQKISGSTRNPDHDPVRAPQDGFDPYGAFITSSNRSQNGYSLSMFECPICKNPFTSEEEVSVHVESCLGDTNGDESSFEKDNNDNDKSEMEKLVVVYLSGKPSESSIDVLLRLFKNIVKEPENAKFRKVRMSNAKIKEAIGDVAGGVELLELVGFELKEENDEIWAVMDVPSEEQSILINKVVGYLEKRKTESSGSSAQVMEPVAPKKIDRENGCFLVQIRVFFSVSENVASRIEVPDSFYSLSADEIKREADLRRKKIAESQLLIPRSYKEKQAKAARKRYKRSMIRVQFPDGVVLQGVFAPWEPTFALYEFVSSALKEPSLQFELLDPVLVKRRVIPHTPAPGQKPITLEDEELVPSALIRFRPIETDSLVFTGLRNELLEISEPLS	failed
MDEDGFSQCSKHFSKRGYFSGGGVCPFCLHERLSSLCPDCAHDLPCSCSSRAAVSFSPSSSSSSSSFSIFAGDISFNISGVGSVGRVASLIECEPAFRRSKSMAIPIKPDSVIDSGLDHGRSKKTSSFWRIFMGNRGDTKPAIMKKSRSVAVAGEFGFSPVPVPATGKGKGWNFPSPIKVFRQSRVSKMIFQQRSPLYRG	failed
MDEGMQIVGAVSGLSTPFNQNVSLECYNGILSMLLNGAPLADILHALVLKIEDQRLGTHASVLLLSEDGKRVLTGAAPHLPDSYNQVIHGVEIGPEVGSCGTAAYTGQRVIVEDIEHHPYWALYKSFALVHGLRACWSEPIKDTQGKVLGTFAMYYKEIKSPTVADLTLIAEAARLASLAIERSRSLEFQRLAVKIFDRLPLALVITNASHSVLYANDAFKLMVCLQPDDILAFNPEQFFSPSEPHEIASLFNHLSEGKMWQGELVGLRNNGETFYLDLTVTVFRESHSADLGFAWLFSDVSERKKAAQLIKYQANNDSLTGLANRNALFRQIQELINADSLTPGFSFMLMDLDNFKQVNDTYGHDKGDVLLVQMVEQVKICLDPQAVFARLGGDEFAILLPGVVTQRELSQLADKINKQVYRRYELSHDKGVYSSVSIGIARFPEDALDLEQLLNCADQAMYISKANGRNRYHFFTEQMQQNAERIANLHTLLKQALEQNAFELYFQPIVDATTGLIVRAEVLLRWQHEGQFISPDEFIPIAENSGLIVSIGRCVRQAVMQTIVEMQALGWPMSLAINVSTFEFWSHELQDEFCDSFTDIIEGLGVEDFPYELITLEITESLLMKKHAHLIQVLNELRARGIKISLDDFGTGYSSLSYLANFPIDQIKIDKSFIDRLAEGERHLALIEAIVRLSHALNLRVTAEGVETQEQLQVMMDNHIQEIQGYLFYKPIPKAVFFELLAKQAVISPHSLEHHHHHH	failed
MDELHPGYLVGLLVLLVACSAFFSCVETALLNLDRYRLRLQAKQGLRGARRSSWLLLHDDRLRGTLLFGRTLVNVSAAALASWAALRHWGVIGLAVAIPGMTLLLLLFGALLPRRYGALRSERVALPLSLPLLILQRLCWPLLWLLTLLSNALLRLLGVAAAEQDDSGRSRDEEALHPADNPQASEVNRHDMLLGLLDLEKVTVNDLMIPRNEIEGIDLDDELEVIVEQLRTTSHTRLPVYRDDVNQIEGVVHMRQIARLLTQGRLTKENLRQACMEPYFVPESTPLSTQLVNFQKEKRRIGVVVDEYGEVIGIVTLEDILEEIVGDFNDLDSLDNPDIQAQEDGSFVIDGSANLRELNKSLGWQLPCDGPKTLNGLVTEALEQIPDCAVCLRIGPYCLEIQQSAENRVKSVRAWHPRALTPLVESDASV	failed
MDELRFAAVGLNHNHIYGQVNCLLRAGARLAGFHEKDDALAAEFSAVYADARRIATAEEILEDENIGLIVSAAVSSERAELAIRAMQHGKDVLVDKPGMTSFDQLAKLRRVQAETGRIFSILYSEHFESPATVKAGELVAAGAIGEVVHIVGLGPHRLRRETRPDWFFRRADYGGILTDIASHQCEQFLFFTGVNDATVLSASVGNQSVPDAPELQDTGSIHLSTGRTTGMIHVNWLTPEGMPTWGDGRLFIVGTSGTIEVRKTVDLAGREGGNHLFLADRNGVEHIDCSRVDLPFGRQFLADIRDRTETAMPQERCFKAMELALQAQAIAEQNGDRN	not failed
MDEPVRTFPITWLADYVMEDEGFSSREDINDLLMKEGFPLEPDLFMLTEIARKGIIEVTSSRDYSPEYALFLNLTFRDGSALNSRKVKVAWSEVCSPKQEGGLGLRSIAEANKVCVLKLIWRILSARRSLWVELVKKYLIRRGSFWLVKENTTCGSWIWKKILKYRDTAKSFYRVEVRNGEASSFGFDRWSEMGCLYDRLGARGCIDLGSPMTATVGEVMAGARRRKYRVAILNQVENEIVKQKLIRSNETDVALWNGKHDHYRKEFHTKETWLQIRTAKLLMENYNGIWFKHSTPKYSLITWLVQKNRVATGDKLIKWNPQVTPNCILCQHTLETWDHLFFMCPYSFQVWTKLAKGILHASFTANWTETLKLIHDNRLSKTKCFIVGYIFQNAIHSL	failed
